Measured values: patent US20200223906A1 (Adimab, published 2020)
Where a chain is given by its changes, count along the chain named.

B1: ADI-18966 (antibody, V domains shown)
VH: QVQLVQSGGGVVQPGRSLRLSCAASGFTFRNYGMHWVRQAPGKGLEWVAAASYDGSSKYFADAVKGRFSISRDNTKNTLSLQMTSLRAEDTAVYYCARDPGVGSYYNVVGMDVWGQGTTVTVSS
VL: DIRLTQSPLSLPVTLGQPASISCRSSQSLVYSDGNTYLNWFQQRPGQSPRRLIYRVSHRDSGVPDRFSGSESGTDFTLKISRVEAEDVGVYYCMQGTHWPPTFGQGTKVEIK
notes: full-length IgG from yeast
B2: ADI-18975 (antibody, V domains shown)
VH: QVQLVQSGAEVKKPGASVKVSCKASGYTFVHYGISWVRQAPGQGLEWMGWISAYNGNTNSALKFQDRVTMTTDPSTSTAYMELRSLRSDDTAIYYCARDSGCCSGSTSDVWGKGTTVTVSS
VL: DIVMTQSPLSSPVTLGQPASISCRSSQSLVHSDGNTYLSWLHQRPGQPPRLLIYKISHRFSGVPDRFTGSGAGTDFTLKISRVEAEDVGVYYCMQATEFPPMYTFGQGTKVEIK
notes: full-length IgG from yeast; also called Antibody Number 323; Ab # 323
B3: ADI-18882 (antibody, V domains shown)
VH: QVQLVQSGAEVKKPGSSVRVSCKASGGTFRGYGLSWVRQAPGQGLEWMGGITHLFGTVSYAPKFQGRLTITADASTGTAYMELSSLISEDTAVYFCARDAYEVWTGSYLPPFDYWGQGTMVTVSS
VL: DIVMTQSPGTLSLSPGERVTLSCRASQIIPSSYLAWYQQKPGQAPRLLIYGAFTRATDIPDRFSGSGSGTDFTLTISRLEPEDFAVYYCQQYGSSFLTFGGGTKVEIK
notes: full-length IgG from yeast
B4: ADI-18977 (antibody, V domains shown)
VH: QVQLVQSGTEVKKPGASVKISCKTSGYTFTNNVIQWVRQAPGQRLEWMGWISAGNGYTKYSDKFQDRVTITRDTSASTAYMEVSSLTSEDTAMYYCARQVSTSGWHATSHRFAPWGQGTLVTVSS
VL: DIQMTQSPSSLSASVGDRVTITCQASQGISRYLNWYQQKPGKAPNLLIYDASNLETGVPSRFSGSGSGTHFTLTISSLQPEDIATYYCQQYDNLPLTFGGGTKVEIK
notes: full-length IgG from yeast
B5: ADI-18883 (antibody, V domains shown)
VH: QVQLVQSGPEVKKPGSSVTVSCKASGGTFSNYGIAWVRQAPGQGLEWMGSTIPILGTASYRQSLKDRVTITADASTTTVYMEMTRLRTEDTAVYFCARVPESLVASNAYAVWGQGTVVTVSS
VL: DIQMTQSPSSVSASVGDRVTITCRASQDISTWLAWYQQRPGKAPKLLIYTASSLQSGVPSRFSGSGSGTEFTLTISSLQPEDFATYYCQQGTSFPFTFGPGTKLEIK
notes: full-length IgG from yeast
B6: ADI-18939 (antibody, V domains shown)
VH: QVQLQQWGAGLLKPSETLSLTCAVYGGSFSGYSWSWIRQSPGKGLEWIGEINHRGSTNYNPSLKSRVTISVDTSKNQFSLKLSSVTAADTAVYYCAGTNYGEVNTSNQYFFGMDVWGQGTTVTVSS
VL: DIRLTQSPSSLSASVGDRVTITCRASQSITTYLNWYQQKPGKAPKLLIYAASNLESGVPSSFSGSGFGTDFTLTISSLQPDDFATYYCQQSYSAPLTFGGGTKVDIK
notes: full-length IgG from yeast; also called Antibody Number 292; Ab # 292
B7: ADI-18960 (antibody, V domains shown)
VH: QVQLQESGPGLVKPSETLSLTCSVSGGSITNVNYYWGWIRQPPGKGLEWIGSIYYNGNTYYNPSLQSRVTMSVDTSKNHFSLRLTSVTAADTAVYFCAREGPNWELLNAFDIWGQGTTVTVSS
VL: DIQVTQPPSVSVAPGQTARITCGGNNIGSKNVHWYQQKPGRAPVLVVYEDTHRPSGIPERFSGSNSGNTATLTISRVEAGDEADYYCQVWDTSSDHVVFGGGTKLTVL
notes: full-length IgG from yeast; also called Antibody Number 311; Ab # 311
B8: ADI-18974 (antibody, V domains shown)
VH: QVQLVQSGPEVKKPGASVRVSCEASGYPFSNYGITWVRQAPGQGLEWMGWISAYNGNRDYLQKFQGRLTMTIDTSTRTAHMELRRLTSDDTAVYWCARDTPATAAPLLDYWGQGTLVTVSS
VL: DIVMTQSPLSLAVTLGQPASISCRSSQSLEFTDGNTYLNWFQQRPGQSPRRLIYKVSNRDSGVPDRFSGSGSGTGFTLKISRVEAEDVGVYYCMQGIFRPGTFGQGTKVEIK
notes: full-length IgG from yeast
B9: ADI-18958 (antibody, V domains shown)
VH: QVQLQESGAEVKMRGASVKVSCKASGYTFSHYGISWVRQAPGQGLEWMGFISAYNHNTKYAQTVQGRVTLSTDTSTSTAYMELRSLRPDDTAMYYCAREPPSDDAARLFDYWGQGTLVTVSS
VL: ETTLTQSPRSLPVTLGQPASISCRSSQSLVYSEGNTYLSWFQQRPGQSPRRLIYKVSNRDSGVPDRFSGSGSGTDFTLKISRVEAEDVGVYYCMQGTQWPVTFGQGTKVEIK
notes: full-length IgG from yeast
B10: ADI-18892 (antibody, V domains shown)
VH: QVQLVQSGAEVKEPGASVRVSCKASGYTFTSYGISWVRQAPGQGLEWMGWISAYNGNTNYAQKFQGRVTVTTDTSTSAAYMELRSLRSDDTAIYYCARDSFSLTGAGFPDYWGQGTLVTVSS
VL: B9 VL with T2I, T3V, L4M, R9L, E33D, S39N, G73D, G96A, V101R
notes: full-length IgG from yeast
B11: ADI-18969 (antibody, V domains shown)
VH: QVQLVQSGPEVKKPGASVTVSCKASGYTFSHYGISWVRQAPGQGLEWMGWISAYHGQTNYAQNFQGRVTMTTDTSSNTAYMEVRSLRSDDTAVYFCARDVFSKTAARIFDYWGQGTLVTVSS
VL: B9 VL with T2I, T3V, R9L, V30E, E33D, G71Q, G96A, Q98D, V109L
notes: full-length IgG from yeast; also called Antibody Number 317; Ab # 317
B12: ADI-18971 (antibody, V domains shown)
VH: EVQLVESGGGLVQRGGSLRLSCAASGFTFSGNAMSWVRQAPGKGLEWVASIGESATSAYYADSVKGRFTISRDDSKNTLYLQMNSLRPEDTAVYFCAKDRVGWFGEFDAFDFWGQGTMVTVSS
VL: SYELTQPPSVSVAPGKTATISCGGNNIGGHKVHWYQQRPGQAPVLVIYYDNVRPSGIPERFSGSNSGNTATLTISRVEAGDEADFYCQVWDSRSEHVIFGGGTKVTVL
notes: full-length IgG from yeast; also called Antibody Number 319; Ab # 319
B13: ADI-18953 (antibody, V domains shown)
VH: QVQLVQSGAEVKKPGSSVKVSCKASGGTFSGYAINWVRQAPGQGLEWMGGIIHIFGTVNYAPKFQGRLTITADASTGTAYMELSSLMSEDTALYYCARDAYEVWTGSYLPPFDYWGQGTLVTVSS
VL: ETTLTQSPGTLSLSPGERVTLSCRASQTVTSNYLAWYQQKPGQAPRLLIYDAFTRATGVPARFSGSGSGTDFTLTISRLEPEDFAVYYCQQYGSSFLTFGGGTKVEIK
notes: full-length IgG from yeast
B14: ADI-18890 (antibody, V domains shown)
VH: QVQLVQSGAEVKRPGSSVKVSCKASGGTFRGYHISWLRQAPGQGLEWLGGITHLFGTVSYAPKFQGRVTITADASTGTLYMVLNSLKPEDTAIYYCARDAYEVWTGSYLPPFDYWGQGTLVTVSS
VL: B13 VL with V19A, F53L, V59I, A61D, V86L, E106D
notes: full-length IgG from yeast
B15: ADI-18891 (antibody, V domains shown)
VH: B14 VH with V5Q, Q6E, R13K, T28A, R30S, G31S, H33A, L37V
VL: B13 VL with T2I, T3V, V19A, F53L, V59I, A61D, V86L, V105L
notes: full-length IgG from yeast; also called Antibody Number 246; Ab # 246
B16: ADI-18937 (antibody, V domains shown)
VH: QVQLQESGPGLVKPSQTLSLTCTVSGPSISAGDYNWNWIRQAPGKGLEWVGYIDYRGLTHYNPSLKGRLSILMDRSANQFSLELNSVTAADTAVYYCARDVGVYSGYDVFHYYGMDVWGQGTTVTVSS
VL: ETTLTQSPVTLSLSPGERATLSCRASQYVRNNYLAWYQHKPGQAPRLLIYSASSRVTGTPDRFSGSGSGTDFTLTISRLEPEDFAVYYCQQYGGSPPVTFGPGTKVDIK
notes: full-length IgG from yeast; also called Antibody Number 290; Ab # 290
B17: ADI-18889 (antibody, V domains shown)
VH: QVQLQQWGAGLWKPSQTLSLTCAVHGGSLSGYSWSWIRQSPGRGLEWIGEVNRRGTTNYNPSLKGRVSISWDTSKNQVSLSLRSVTAADTATYYCAGTNVGFVNTHNDYYFGMDVWGQGTTVTVSS
VL: DIVMTQSPSSLSASVGDRVTITCRASQSISNYVNWYQKKTGQVPKLLIYGASNLESGVPSRFSGGGSGTDFTLTISSLQPEDFATYYCQQSYSVPLTFGGGTKVEIK
notes: full-length IgG from yeast; also called Antibody Number 244; Ab # 244

Experiments:
[1] = molecular target: RSV F protein of subtype B (18537) on recombinant mKate-RSV virus (Respiratory syncytial virus subtype B …, UniProt P13843 26-574); experiment: cell-based or functional assay
[2] = molecular target: RSV F protein of subtype A (strain A2) on recombinant mKate-RSV virus (Respiratory syncytial virus subtype A …, UniProt P03420 26-574); experiment: cell-based or functional assay
[3] = molecular target: T1, RSV F subtype A, furin-cleaved ectodomain stabilized in the prefusion conformation (DS-Cav1) (Respiratory syncytial virus subtype A, UniProt P03420 26-524); experiment: BLI, IgG on AHQ sensor, 100 nM antigen
T1 construct: extracellular domain; Trimeric soluble antigen; also called Prefusion subtype A

[4] = molecular target: T2, RSV F subtype B, furin-cleaved ectodomain stabilized in the prefusion conformation (DS-Cav1) (Respiratory syncytial virus subtype B); experiment: BLI, IgG on AHQ sensor, 100 nM antigen
T2 construct: extracellular domain; Trimeric soluble antigen; also called Prefusion subtype B

Binder | Neut IC50 (µg/ml) subtype B [1] | Neut IC50 (µg/ml) subtype A [2] | Kd [3] | Kd [4]
B1 | 0.13 µg/mL | 0.044 µg/mL | 0.578 nM | 0.562 nM
B2 | 0.174 µg/mL | 0.037 µg/mL | 0.267 nM | 0.298 nM
B3 | 0.057 µg/mL | 0.041 µg/mL | 0.427 nM | 0.476 nM
B4 | 0.117 µg/mL | 0.108 µg/mL | 0.786 nM | 0.966 nM
B5 | 0.05 µg/mL | 0.041 µg/mL | 0.431 nM | 0.566 nM
B6 | 0.038 µg/mL | 0.018 µg/mL | 0.574 nM | 0.56 nM
B7 | 0.107 µg/mL | 0.034 µg/mL | 0.178 nM | 0.183 nM
B8 | 0.105 µg/mL | 0.03 µg/mL | 0.253 nM | 0.29 nM
B9 | 3.36 µg/mL | 0.587 µg/mL | 0.286 nM | 0.302 nM
B10 | 0.117 µg/mL | 0.018 µg/mL | 0.217 nM | 0.253 nM
B11 | 0.187 µg/mL | 0.035 µg/mL | 0.303 nM | 0.297 nM
B12 | 0.114 µg/mL | 0.039 µg/mL | 0.157 nM | 0.168 nM
B13 | 0.022 µg/mL | 0.034 µg/mL | 0.513 nM | 0.421 nM
B14 | 0.041 µg/mL | 0.041 µg/mL | 0.489 nM | 0.458 nM
B15 | 0.026 µg/mL | 0.012 µg/mL | 0.534 nM | 0.513 nM
B16 | 0.508 µg/mL | 0.084 µg/mL | 0.289 nM | 0.273 nM
B17 | 0.019 µg/mL | 0.04 µg/mL | 0.554 nM | 0.587 nM
